Target: Bovine kappa casein purified from cow's milk (Sigma Aldrich) (bovine (cow)) (UniProt P02668)
Assay: cell-based or functional assay

UniProt P02668, sequence (P02668 22-190): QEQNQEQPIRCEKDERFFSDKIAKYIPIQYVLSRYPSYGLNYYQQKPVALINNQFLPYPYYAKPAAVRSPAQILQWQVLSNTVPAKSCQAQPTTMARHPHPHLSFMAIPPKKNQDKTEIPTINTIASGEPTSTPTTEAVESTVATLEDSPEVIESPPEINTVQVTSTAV

Substance: Recombinantly-produced N-terminally 6xhistidine-tagged bovine (cow) alpha-s1-casein (lacking PTMs)
- Average A450 (turbidity of the micellar colloid): 0.13 A450

— patent publication US20230404098A1
